Test results: the supplement of paper PMC7125110
± gives the standard error. Variants at the floor of the assay were thinned out.

B1: glmS ribozyme (parent)
chain: AUAAAAGCGCCAGAACUACAGAAAUGUAGUUGACGAGGAGGAGGUUUAUCGAAUUUUCGGCGGAUGCCUCCAAA

Variants of: B1
Experiment: self-cleavage kobs at 2500 uM GlcN6P; higher = faster cleavage; RNA array
Details: with glucosamine-6-phosphate
In short: (§1)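 Over ~14 h at 37 °C, tiles were imaged as glucosamine-6-phosphate (40 μM to 10 mM) in HEPES/KCl/Mg(OAc)2 buffer flowed across sequenced MiSeq chips. The chips carried barcoded ribozyme variants transcribed in situ by E. coli RNA polymerase and tracked with a hybridised Cy3 probe. After normalisation to baseline and to non-cleaving reference variants, one- or two-exponential decay fits of per-tile medians gave kobs. kcat and KM followed from weighted Michaelis–Menten fits across concentrations.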

Row | Variant | self-cleavage kobs at 2500 uM GlcN6P [s⁻¹]
1 | AUAAAAGCGCCAGAACUACAGAAAUGUAGUUGACGAGGAUGAGGUUUGUCGAAUUUUCGGCGGAUGCUUCCAAA [G40U A48G C68U] | < 1e-05
2 | AUAAAAGCGCGAGAGCUACAGAAAUGUAGUUGACGAGGCAGAGGUUUAUCGAAUUUUCGGCGGAUGCCUCCAAA [C11G A15G A39C G40A] | < 1e-05
3 | AUAAAAGCGCCAGAACUACAGAAAUGUAGUUGACAUGGAGGAGAUUUAUCGGAUUUUCGGGGGAUGACUCCAAA [G35A A36U G44A A52G C61G C67A] | < 1e-05
4 | AUAAAAGCGCCGGAAGUACAGAAAUGUAGUUGACGAGGAGGAGGUUUAUCGAAUUUUCGGCGGAUGCGUCCAAA [A12G C16G C68G] | 0.00102 ± 0.0005
5 | AUAAAAGCGCCAGAACUACAGAAAUGUAGUAGACGAGGAGGAGGUCUAUCGAGUUUUCGGCGGAUGCCUACAAA [U31A U46C A53G C70A] | 4.56e-05 ± 1.7e-05
6 | AUAAAAAUGUCCGAACUACAGAAAUGUAGUUGACGCGGAGGAGGUUUAGCGAAUUUUCGCCGGUUGCCUCCAAA [G7A C8U C10U A12C A36C U49G G60C A64U] | < 1e-05
7 | AUAAAAGCGUCAGAAUUACAGAAAUGUAGUUUACGAGGAGGAGGUUUAUCGAAUUUUCGGCGGAUGCCUCCAAA [C10U C16U G32U] | 6.59e-05 ± 1.7e-05
8 | AUAAAAGCGGCAGAACUACAGAAAUGUAGUUGACGAGGAGGUGGUUUAUCGAAUUUUCGGCCGAUGCCUCCAAA [C10G A42U G62C] | < 1e-05
9 | AUAAAAGCGCCAGAACUACAGAAAUGUAGUUGACGGGGAGGAGGUUUAUCGAAUAUUCGGCGGAGGCCUCCAAA [A36G U55A U65G] | < 1e-05
10 | AUAAAAGCGCCAGAAUUACAGAAAUGUAGUUGACGAGGAGGAGGUUUAUCUCAUUUUCGGCGGAUGCAUUUAAA [C16U G51U A52C C68A C70U C71U] | < 1e-05
11 | AUAAAAGCGUCAGAACUACAGAAAUGUAGAUGACGAGGAGGAGGUGUAUCGAAUUUUCGGCGGAUGCCUCCAAA [C10U U30A U46G] | < 1e-05
12 | AUAAAAGCGCCAGAUCUACAGAAAUGUAGUUGACGAGGAGGAGGUUUAUCGAAGUUUAGGCGGAUGCCUCCAAA [A15U U54G C58A] | 3.84e-05 ± 1.4e-05
13 | AUAAAAGCGCCAGAACUACAGAAAUGUAGUUGACGAGGAGGUGGUUUGUCGGAUUUUGGGCGGAUGCCUCCAAA [A42U A48G A52G C58G] | < 1e-05
14 | AUAAAAGCGCCAGAACUACAGAAAUGUAGUUGACAAGGAGGAGGUUUCUCAAAUUGUCGGCGGAUGCCUCCAAA [G35A A48C G51A U56G] | < 1e-05
15 | AUAAAAGCGCCAGGACUACAGAAAUGUAGUUUACGAGGAGGAGGAUUAUCGAAUUUUCGGCGGAUGCCUCCAAA [A14G G32U U45A] | 0.00147 ± 0.00059
16 | AUAAAAGCGCCAGAACUACAGAAAUGUAGUUGACGAGGAGGAGGUUUAUCGAAUUUUCUGCGGAAGCUUCCAAA [G59U U65A C68U] | < 1e-05
17 | AUAAAAGCGCCAGAACUACAGAAAUGUAGUUGACGAGGAGGAGGUUUAUUCAUUUUUCGGCGGAUGCCUCCAAA [C50U G51C A53U] | < 1e-05
18 | AUAAAAGCGCAUGAACUACAGAAAUGUAGUUGACUAGGAGGAGGUUUAUGGAAUUUUCGGCGGAUGCCUCCAAA [C11A A12U G35U C50G] | 0.000171 ± 4.2e-05

Row | Variant | self-cleavage kobs at 2500 uM GlcN6P [s⁻¹]
19 | AUAAAAGCGCCACAACUACAGAAAUGUAGUUGACGAGGAGGAGGACUAUCGAAUUUUCGGCGGAUGCCUCCAAA [G13C U45A U46C] | 5.29e-05 ± 1.6e-05
20 | AUAAAAGCGGCAGAACUACAGAAAUGUAGUUGACGAGGAGGAUGUUUAUCGAAUUUUCGGCGGGUGCCUCCAAA [C10G G43U A64G] | < 1e-05
21 | AUAAAAGCGACAGAACUACAGAAAUGUAGUUGACGAGGAUGAGGUUGACCGAAUAUUCGGCGGAUGCCUCCAAA [C10A G40U U47G U49C U55A] | < 1e-05
22 | AUAAAAGCGCCAGAGCUACAGAAAUGUAGUUGACGAGGAGGAGCUUUAUCGAAUUUUCGGCGGAUGCCUCCAAA [A15G G44C] | 0.00014 ± 4.2e-05
23 | AUAAAAGCGCCAGAACUACAGAAAUGUAGUUUACUAGGAGGAGGUUUAUCGAGUUUUAGGCGGAUGCCUCCAAA [G32U G35U A53G C58A] | < 1e-05
24 | AUAAAAGCGCCAGAACUACAGAAAUGUAGGUGACAAGGAGGAGGUUUAUCAAAUUUUCGGCGGAUGCCUACAAA [U30G G35A G51A C70A] | < 1e-05
25 | AUAAAAGCGCCAGAACUACAGAAAUGUAGUUGACGAGCAGCAGGUUUAUCGAAUUUUCGGAGGAUGCCUCGAAA [G38C G41C C61A C71G] | < 1e-05
26 | AUAAAAGCGCCAGAACUACAGAAAUGUAGUUGACGAGGAGGGGAUUUAUCUAAUUUUCGGCGGAUGCCUCCAAA [A42G G44A G51U] | < 1e-05
27 | AUAAAAGCGCUAGAACUACAGAAAUGUAGUUGACGAGGAGGAGGUUUAUCGGAUUUUCGGCGGAUGCCUCAAAA [C11U A52G C71A] | 5.37e-05 ± 2.4e-05
28 | AUAAAAGCGCCAGAACUACAGAAAUGUAGUCGACGAGGGGGAGGUUUAGCGAAUUUUCGGCGGAUGCCUUCAAA [U31C A39G U49G C70U] | 2.73e-05 ± 1.4e-05
29 | AUAAAAGCGCCAGAAUUACAGAAAUGUAGUUGACGAGGAGGAAGUUUAACGAAUUUUCGGCGGAUGCCUCCAAA [C16U G43A U49A] | < 1e-05
30 | AUAAAAGCGCCCGAACUACAGAAAUGUAGUUGACGAGGAGGUGGUUUAUCGAAUUUUCGGCGGAUGUCUCCAAA [A12C A42U C67U] | 7.04e-05 ± 1.6e-05
31 | AUAAAAGCGCCAGUACUACAGAAAUGUAGUUGACGAGGAGGAGGUUUAUGGAAUUUUCGCCGGAUGCCUCCAAA [A14U C50G G60C] | 0.000405 ± 0.00014
32 | AUAAAAGAGCCAGAACUACAGAAAUGUAGUUGACGAGGAGGCGGUUUAUCGAAUUUUCGGCGGGUGCCUCCAAA [C8A A42C A64G] | < 1e-05
33 | AUAAAAGCGCCUGAACUACAGAAAUGUAGUUGACGAGGAGGAGGUUUAUUGAAUUUUCGGCGGACGCCUCCAAA [A12U C50U U65C] | < 1e-05
34 | AUAAAAGCGCCAGUACUACAGAAAUGUAGUAGACGAGGAGGAGGUUUAUCGAAUUUUCGGCGGAUGCCACCAAA [A14U U31A U69A] | 0.000236 ± 5.6e-05
35 | AUAAAAGCGCCAGAACUACAGAAAUGUAAUUGACGAUGAGGAGGUUUAUCGAAUUUCCGGCGGAUGCCUCCAAA [G29A G37U U57C] | < 1e-05

Variants of: B1
Experiment: self-cleavage kobs at 10000 uM GlcN6P; higher = faster cleavage; RNA array
Details: with glucosamine-6-phosphate
In short: as §1

Row | Variant | self-cleavage kobs at 10000 uM GlcN6P [s⁻¹]
36 | AUAAAAGCGCCAGAGCUACAGAAAUGUAGUUGACGAGGAGGAGCUUUAUCGAAUUUUCGGCGGAUGCCUCCAAA [A15G G44C] | 0.000166 ± 3.2e-05
37 | AUAAAAGCGCCAGAACUACAGAAAUGUAGUUGACGAGGAGGGGAUUUAUCUAAUUUUCGGCGGAUGCCUCCAAA [A42G G44A G51U] | < 1e-05
